Measurements reported in PMC2828547, “UIF, a New mRNA Export Adaptor that Works Together with REF/ALY, Requires FACT for Recruitment to mRNA” (Current Biology, 2009).

Biological target: T1, GST-UAP56 (UniProt Q13838 1-428)
T1 construct: UAP56
Test: pull-down; GST fusion proteins with purified UIF in the presence of RNase; Coomassie staining
Details: both partners purified

T1 sequence (Q13838 whole entry): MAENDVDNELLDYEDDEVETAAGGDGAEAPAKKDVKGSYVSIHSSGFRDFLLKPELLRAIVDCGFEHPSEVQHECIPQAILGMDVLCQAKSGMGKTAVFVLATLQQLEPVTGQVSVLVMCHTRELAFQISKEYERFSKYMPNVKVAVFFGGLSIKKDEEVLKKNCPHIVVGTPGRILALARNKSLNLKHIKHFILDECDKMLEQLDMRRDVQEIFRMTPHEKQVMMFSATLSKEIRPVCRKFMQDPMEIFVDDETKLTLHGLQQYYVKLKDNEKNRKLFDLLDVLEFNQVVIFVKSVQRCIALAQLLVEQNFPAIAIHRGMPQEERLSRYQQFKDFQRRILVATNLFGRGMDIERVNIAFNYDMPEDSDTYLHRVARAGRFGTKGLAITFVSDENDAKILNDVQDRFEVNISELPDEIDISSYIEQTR

B1: purified UIF (recombinant) (natural protein, human, UniProt Q96QD9 1-318, looked up)
chain: MNRFGTRLVGATATSSPPPKARSNENLDKIDMSLDDIIKLNRKEGKKQNFPRLNRRLLQQSGAQQFRMRVRWGIQQNSGFGKTSLNRRGRVMPGKRRPNGVITGLAARKTTGIRKGISPMNRPPLSDKNIEQYFPVLKRKANLLRQNEGQRKPVAVLKRPSQLSRKNNIPANFTRSGNKLNHQKDTRQATFLFRRGLKVQAQLNTEQLLDDVVAKRTRQWRTSTTNGGILTVSIDNPGAVQCPVTQKPRLTRTAVPSFLTKREQSDVKKVPKGVPLQFDINSVGKQTGMTLNERFGILKEQRATLTYNKGGSRFVTVG
notes: it may be the GB1-6His-UIF of m18; also called recombinant UIF
  binding result: binds
